Measured values from PMC9568614.
Where “and” joins values, the source holds several entries; their conditions need not be identical. Equal entries are not always repeated. Each block holds one substance with its values, some of them ahead of it.

Tests used:
[1] = target: FcRn coupled to the FcRn Affinity Column (Roche) (UniProt P55899); test: FcRn-affinity chromatography; FcRn Affinity Column (Roche); antibody or fragment injected at pH 5.5 (20 mM MES, 150 mM NaCl), pH gradient to pH 8.8 (20 mM Tris-HCl, 150 mM NaCl); elution pH read
[2] = target: recombinant human FcRn (FcRn alpha-chain with C-terminal BirA 10x-Histidine tag, with beta-2-microglobulin) (human) (UniProt P55899); test: SPR
[3] = target: Fc-MST-HN (IgG1 Fc fragment with M252Y, S254T, T256E, H433K, N434F) (human); test: crystal structure; Fc-MST-HN with EndoH- and thrombin-treated FcRn:beta2M, complex isolated by preparative SEC; crystals from 0.1 M sodium cacodylate pH 7.0, 293 K
[4] = target: recombinant human FcRn (FcRn alpha-chain with C-terminal BirA 10x-Histidine tag, with beta-2-microglobulin) (human) (UniProt P55899); test: SPR; pH 6.0
Fc-MST (human) = test: ITC; 37 °C, PEAQ-ITC; as drawn in the figure FcRn:b2M titrated into the Fc (reverse setup: 6 uM in the cell, 165 uM in the syringe); fit A + B + B with 2 symmetric sites, macroscopic K (Sedphat); buffer and pH not stated; four runs for Fc-MST-HN (values averaged), one for Fc-YTE
Fc-MST-HN (human) [5] = test: SPR; IBIS MX96; IgG or Fc randomly coupled on a SensEye G Easy2Spot array at four spotting concentrations (60, 30, 15, 7.5 nM); monomeric human FcRn injected 0.49-1000 nM in PBS, 0.075% Tween 80, pH 7.4; equilibrium analysis, Langmuir 1:1 model; one KD for each spot (with its RU), later interpolated to Rmax = 700 RU
anti-HEL IgG1-WT (human) = test: SPR; IBIS MX96; IgG or Fc randomly coupled on a SensEye G Easy2Spot array at four spotting concentrations (60, 30, 15, 7.5 nM); monomeric human FcRn injected 0.49-1000 nM in PBS, 0.075% Tween 80, pH 6.0; equilibrium analysis, Langmuir 1:1 model; one KD for each spot (with its RU), later interpolated to Rmax = 700 RU
[6] = target: anti-HEL IgG1-MST-HN (human); test: as above
Fc-WT (human) = test: as above
Fc-MST-HN (human) [7] = test: as above
[8] = target: recombinant human FcRn (FcRn alpha-chain with C-terminal BirA 10x-Histidine tag, with beta-2-microglobulin) (human) (UniProt P55899); test: SPR; pH 7.4

- Kd [2]: 381 nM
Substance: anti-HEL IgG1-WT (full-size IgG1) (from UniProt P01857)

- stoichiometry N [3]: 2 FcRn per Fc
Substance: FcRn:beta2M (FcRn residues 1-297 with beta-2-microglobulin residues 1-119), EndoH-treated, tags removed by thrombin (from UniProt P55899 24-297; P61769 21-119) (complex)

- elution pH [1]: 8.7 pH
Substance: Fc-MST-HN (IgG1 Fc fragment with M252Y, S254T, T256E, H433K, N434F) (domain or fragment)

- Kd (Fc-MST-HN (human) [5]): 1150 nM and 1040 nM and 830 nM
- Kd (anti-HEL IgG1-WT (human)): 600 nM
- Kd [6]: 37 nM and 34 nM
- Kd (Fc-WT (human)): 240 nM and 270 nM
- Kd (Fc-MST-HN (human) [7]): 37 nM and 34 nM and 32 nM
Substance: recombinant human FcRn (FcRn α-chain with ß2-microglobulin) (from UniProt P55899 24-297; P61769 21-119) (receptor)

The remaining lines, values behind:

Substance: anti-HEL IgG1-WT (full-size IgG1) (antibody)
- elution pH [1]: 7 pH

Substance: anti-HEL IgG1-MST-HN (full-size IgG1) (antibody)
- elution pH [1]: 8.7 pH

Substance: anti-biotin IgG1-WT (from UniProt P01857)
- Kd [4]: 200 nM

Substance: FcRn:ß2M (recombinant extracellular domain of human FcRn in complex with beta-2-microglobulin, as used for ITC) (from UniProt P55899 24-297; P61769 21-119) (receptor)
- Kd (Fc-MST (human)): 66.2 nM

Substance: Fc-WT (wild-type human IgG1 Fc fragment) (domain or fragment)
- elution pH [1]: 7 pH

Substance: anti-HEL IgG1-MST-HN (full-size IgG1) (from UniProt P01857)
- Kd [2]: 39 nM
- Kd [8]: 899 nM
